Laboratory results taken from the supplement of paper PMC12042874.
± gives the uncertainty stated by the source.

Assay: amyloid nucleation score (Sup35N fusion, yeast selection) (log enrichment); library NNK3; higher = more nucleation; inactive = no reads after selection
Method in brief: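 Yeast lacking psi expressed peptides of 20 random codons fused to Sup35N, received 100 μM copper sulfate for 24 hours, and were then grown for 7 days at 30°C on medium lacking adenine and uracil. Illumina sequencing of input and output plasmid inserts provided the reads. Nucleation scores are DiMSum log enrichments of output over input, centred on the mode of non-aggregating sequences. Any sequence with under 100 input reads was excluded.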

| Substance | amyloid nucleation score |
| --- | --- |
| ESMTSNYYQMIGVFCEMLVR | inactive |
| VTGLEVRHQRHIWHNMGMIR | inactive |
| HRGIVGCLAYMHMNRIVATT | inactive |
| CPYLLNVIMWAIFRSANFVA | inactive |
| WDGYCSRQDRLRFAYRLGVG | inactive |
| VYGIQRVMGRLWIMNVWVPF | inactive |
| HEELQKIMIFSCMCYLQVLT | inactive |
| VNPISWGHVIVTYQN | inactive |
| EGRCMRKCARVNGSWAMKWM | inactive |
| NKNGSHL | inactive |
| ILQMVDVGMEICYTPVLAYF | inactive |
| FEDLKTDSILYQFSRAYGDW | inactive |
| ELIDFTIGLL | inactive |
| VESRRRLRVEVGFSRVDT | 0.077 ± 0.79 |
| NCCCLYP | 1.71 ± 0.091 |
| CGTSHVMFWHVPRGVLKRMY | inactive |
| SGVYLTNNVWGFLYRATISG | inactive |
| GPLESIFNQFAVIATVPRVW | inactive |
| GSRYRWVTATTIMSCGYEQE | inactive |
| LFAYRWGIYFRLKVEYFVDS | inactive |
| ERTSYSC | inactive |
| FGRVNCSSNYRNKMISSTRW | inactive |
| VSNDLNFILYAPTNVVMSTY | 1.25 ± 0.14 |

| Substance | amyloid nucleation score |
| --- | --- |
| CGDLVGTSKYSTLLEWRS | inactive |
| RRPSQRLLGHIKVLWRNTTI | inactive |
| IRVMA | inactive |
| LPWTLGVFGLMY | inactive |
| CKTVAYEYFTGLSLVLDFTR | inactive |
| RVVYLHNSVRLSLDVNPIAV | inactive |
| QMIRVVVFNYDQFFR | 1.47 ± 0.084 |
| RALTLADASGMRGINSGTMK | inactive |
| SMNACSRNGLGMWKVMDLFT | inactive |
| VSSMGSV | inactive |
| RYRGMGQNMT | inactive |
| RMLLICNFGIVCQPMTSLQR | 2.24 ± 0.063 |
| CTSQVDT | inactive |
| TKEAY | inactive |
| RVTTMLSFVR | inactive |
| CWRCFSAD | 0.041 ± 0.6 |
| EVLGSLFYFGYTTGLFIPF | inactive |
| HGDDCGDRDCGGRKECTGIA | inactive |
| LLVESMDGGRPILQDGLFKY | inactive |
| NMIFA | inactive |
| MIRLNNRARRNLLRLRVDRQ | inactive |
| CFTRLVRRGNSQIKRAPGEP | inactive |
| CKVSAL | inactive |

| Substance | amyloid nucleation score |
| --- | --- |
| PHNGHKNSWCTVPGSSCRSV | 1.14 ± 0.18 |
| HALNSCDEFGTVMELCSCGS | inactive |
| VGFKSCS | inactive |
| SKDGSSSTRQVTIVGRVLVF | inactive |
| WEPYTCIYC | inactive |
| FELDIAYTEVLAVDCIPVVL | inactive |
| FQAYDSWNNWSSGFILKYSI | inactive |
| INMALYSSLNLVG | 1.32 ± 0.078 |
| DSGKDKF | inactive |
| ISRSYCCVYT | inactive |
| VVKYSSRCSKVRICLSRWVW | inactive |
| MSKARFRWSDNTDPFFSVGQ | 0.196 ± 0.51 |
| NFVVKCICWAYFPHVDGFYF | inactive |
| SNCFQYECMSWSWDYLHECW | inactive |
| ELYSDG | inactive |
| NTHAVLICKCKDCEWNMIGG | 0.246 ± 0.66 |
| NRSLEVNELI | -0.412 ± 0.68 |
| VHVYFRLADL | 1.3 ± 0.14 |
| TGFSVFYSVYRRQGH | 0.912 ± 0.19 |
| GFDLEVNTGNVVGFEDSAGQ | inactive |
| EVQEKAEHHVLVGRVANPRF | inactive |
| RGSDEDGYLG | 0.003 ± 0.7 |
| RRTRYDS | inactive |

| Substance | amyloid nucleation score |
| --- | --- |
| TICVYHVSFCIQHRVSRGLL | -0.18 ± 0.36 |
| PGVDERT | inactive |
| GYLFGVRVGCVYELAFDGCR | inactive |
| KTKVTALCNIKGNNGHFPKH | inactive |
| KANDFTVFLRRVCLLNRVNA | inactive |
| ATLDTER | inactive |
| WKRNFIW | inactive |
| HSIGPVIKRCCVIFSLR | inactive |
| NYIWLFVLYAIVRFSHWLDF | 0.779 ± 0.14 |
| ISNSLSIEGLAY | inactive |
| MLKSTKKSRGLYMVSYTFTG | inactive |
| GTTSFVLVCVCWSG | -0.409 ± 0.95 |
| LYLFTPVWDFNCLPFGLAYK | inactive |
| LDHAKRHIIVPEYLSLAKKQ | inactive |
| AYVFVYESYAWGNLRQ | inactive |
| SRECLRKLDVSNSTRIK | -0.097 ± 0.24 |
| RSIGIAFLGIVGVYNMLASQ | -0.195 ± 0.59 |
| YTIPSPVGLVLDSPVEIRDL | inactive |
| TEFPQEEPGTSLAQFP | -0.69 ± 1.1 |
| RYADMSTMNAS | inactive |
| NVTTNRVTKLLAN | inactive |
| TVSYRTTIWWRSINFNRRAL | inactive |
| FSCSDLWGRSTLDKGYSFFR | inactive |

| Substance | amyloid nucleation score |
| --- | --- |
| VLCFI | inactive |
| AITVGLSGARRD | inactive |
| IGMYNEGFGMVLMTCPRLFF | 2.09 ± 0.077 |
| VQGTILRSRQNCTL | 0.308 ± 0.48 |
| RDKKNNRVYFGGYSLGTWSC | inactive |
| WLGKYVLVSEYIV | inactive |
| FSFFRGTRLGKSARIAERFE | inactive |
| ASLMERSIMYFVLVNNPRSE | 0.355 ± 0.29 |
| VPLIMSRGRRCRMLFKLPST | inactive |
| CSYILVFSNSFFFHAHSTWV | inactive |
| TAEDYFMKVY | inactive |
| VPGYAAMSPLLCYRGIPVQG | inactive |
| YCVLVIFVGFCFMEFENVTQ | inactive |
| VTMFDLVSM | inactive |
| TQCSNTGCCIEGNLT | inactive |
| CSGHYLFILLGFDTYNGEVF | inactive |
| MDRYNEPLSNWTKSSEIR | inactive |
| NYICVK | inactive |
| VNYYRCWLVSIRYYSLHDHL | 2.35 ± 0.055 |
| FRCSG | inactive |
| CTHEFTTRHLICFRFSKLVY | inactive |
| RTSRT | inactive |
| VKNIGS | inactive |

| Substance | amyloid nucleation score |
| --- | --- |
| ERQNMSYMGHKKEYLNHYFW | inactive |
| SNGNMLRSYVSTPCDRGKGS | inactive |
| IKLARSAYQLSSVNMRVKVI | inactive |
| QVRVVGHFKWYRIGTKVRDI | inactive |
| WYTNPRDIRYFLVVYKKQN | inactive |
| SVLCWFSVR | inactive |
| MGFASSLSWSL | inactive |
| PVDIVHVHAIRIMFMEGSDV | inactive |
| GLLSHLDHLWVCGGWGSRKR | inactive |
| SFGLWTGFGVMYVRIVDVTH | inactive |
| RLYSLSSRCNLNRATPPTKS | -0.041 ± 0.75 |
| FSRMPSIKCMNCMCKLFSRK | 1.06 ± 0.11 |
| KRVKSPNILEMVNYAQ | -0.487 ± 0.9 |
| LLRVNSEAGESCQVSFTFNM | 1.73 ± 0.093 |
| NWGMTNAFFISGKRSGMSSM | 0.42 ± 0.38 |
| VEMATKLQVKVIERALNEGD | inactive |
| YRSLITLQAIRCGIWFCGLW | inactive |
| TVHNKMPHRLWNCTTLE | inactive |
| VLCDDTCYFADVSSWSWDWF | inactive |
| RYYDLVSLVQARDEVCTIHD | inactive |
| TDHCMVGGMYLEPVTIFFEG | inactive |
| YVSTHLSVYTKSFRDMIAPG | inactive |
| CPFLILIFGYPK | inactive |

| Substance | amyloid nucleation score |
| --- | --- |
| PDLVNISSSPYRRCGYRWVD | inactive |
| IVGLDLCVHWQYLQVRLYII | inactive |
| WIVLQTSNSRLMQWGAP | 0.618 ± 0.27 |
| TWLRSYMLYYVVWFF | inactive |
| RLFSWNIYLWLL | 1.48 ± 0.081 |
| LLIVFLIFRMLRLAGASI | inactive |
| SFMLVFNDSAWLTSAHVYWA | inactive |
| RVCYEFKYKIKYVLD | -0.457 ± 0.5 |
| NRFVDLGGQHDTHCVRGYGL | inactive |
| FMSFYVLLSSTMVTQFAMGP | inactive |
| ISGKSHSFCCVTLFHLREGI | 1.12 ± 0.17 |
| YRSSDQDVTVIMCLLANYYN | 2.37 ± 0.057 |
| VAPWKKPLPMKVTSAQFPNR | inactive |
| GKWGWLIASWREFTS | inactive |
| NKYLMINLGYQGSKENDIGV | inactive |
| SYYYPNIVRIEHPHCTRHHA | inactive |
| DTGDCVPGVLSRYLMIWDG | inactive |
| SMGVFAKRRKGRWNTYSIKA | inactive |
| VDINRFMEPLSCVRCCDDSC | inactive |
| WIYYNAVFHACCVYELSNNA | 2.85 ± 0.067 |
| FVSLSRNLNCTPRL | inactive |
